Among the data in patent publication US20130012432A1 (Novo Nordisk, published 2013) are Ki values, retold here.

The Ki is the dissociation constant of the complex between target and ligand, obtained from inhibition or displacement. A high value points to lower affinity.

Positions of bridges follow the written chain, without caps; N, C: chain ends. Non-standard residues stand in square brackets, D forms with d. Groups on a side chain read outwards from the residue. Primed or numbered codes have the meaning given here. *: point of attachment. X5 = NH(2-(2-(2-(17-carboxyheptadecanoylamino)ethoxy)ethoxy)ethyl), O=C(O)CCCCCCCCCCCCCCCCC(=O)NCCOCCOCCN*; X4 = (2-(2-(16-carboxyhexadecanoylamino)ethoxy)ethoxy)acetyl, O=C(O)CCCCCCCCCCCCCCCC(=O)NCCOCCOCC(=O)*; Palmitoyl(16-(5-tetrazolyl)) = O=C(CCCCCCCCCCCCCCCc1nnn[nH]1)*; biscarboxymethyl(3) = Nepsilon-bis(carboxymethyl) on Lys; Lys(CH2CO2H)2 = N[C@@H](CCCCN(CC(=O)O)CC(=O)O)C(=O)O; C17 diacid = O=C(O)CCCCCCCCCCCCCCCC(=O)*; Hyp = O=C(O)[C@@H]1C[C@@H](O)CN1; NTA = O=C(O)CN(CC(=O)O)CC(=O)*; hCys = N[C@@H](CCS)C(=O)O; Orn = NCCC[C@H](N)C(=O)O; Dab = NCC[C@H](N)C(=O)O; Dap = NC[C@H](N)C(=O)O; AEEA = NCCOCCOCC(=O)O

B1: Ac-c[Lys-His-D-Phe-Arg-Trp-Asp]-Pro-Pro-His-Glu-Lys(biscarboxymethyl)-Lys({2-[2-(16-carboxyhexadecanoylamino)ethoxy]ethoxy}acetyl)-NH2 (peptide)
peptide: Ac-KH[dF]RWDPPHE[Lys(CH2CO2H)2]K([AEEA-C17 diacid])-NH2
modifications: lactam 1-6
SMILES: CC(=O)N[C@H]1CCCCNC(=O)C[C@@H](C(=O)N2CCC[C@H]2C(=O)N2CCC[C@H]2C(=O)N[C@@H](Cc2c[nH]cn2)C(=O)N[C@@H](CCC(=O)O)C(=O)N[C@@H](CCCCN(CC(=O)O)CC(=O)O)C(=O)N[C@@H](CCCCNC(=O)COCCOCCNC(=O)CCCCCCCCCCCCCCCC(=O)O)C(N)=O)NC(=O)[C@H](Cc2c[nH]c3ccccc23)NC(=O)[C@H](CCCNC(=N)N)NC(=O)[C@@H](Cc2ccccc2)NC(=O)[C@H](Cc2c[nH]cn2)NC1=O
B2: Ac-c[Lys-His-D-Phe-Arg-Trp-Asp]-Pro-Ser-His-Glu-Lys(biscarboxymethyl)-Lys({2-[2-(16-carboxyhexadecanoylamino)ethoxy]ethoxy}acetyl)-NH2 (peptide)
peptide: Ac-KH[dF]RWDPSHE[Lys(CH2CO2H)2]K([AEEA-C17 diacid])-NH2
modifications: lactam 1-6
SMILES: CC(=O)N[C@H]1CCCCNC(=O)C[C@@H](C(=O)N2CCC[C@H]2C(=O)N[C@@H](CO)C(=O)N[C@@H](Cc2c[nH]cn2)C(=O)N[C@@H](CCC(=O)O)C(=O)N[C@@H](CCCCN(CC(=O)O)CC(=O)O)C(=O)N[C@@H](CCCCNC(=O)COCCOCCNC(=O)CCCCCCCCCCCCCCCC(=O)O)C(N)=O)NC(=O)[C@H](Cc2c[nH]c3ccccc23)NC(=O)[C@H](CCCNC(=N)N)NC(=O)[C@@H](Cc2ccccc2)NC(=O)[C@H](Cc2c[nH]cn2)NC1=O
B3: Ac-c[Lys-His-D-Phe-Arg-Trp-Glu]-Pro-Pro-His-Glu-Lys(biscarboxymethyl)-Lys({2-[2-(16-carboxyhexadecanoylamino)ethoxy]ethoxy}acetyl)-NH2 (peptide)
peptide: Ac-KH[dF]RWEPPHE[Lys(CH2CO2H)2]K([AEEA-C17 diacid])-NH2
modifications: lactam 1-6
SMILES: CC(=O)N[C@H]1CCCCNC(=O)CC[C@@H](C(=O)N2CCC[C@H]2C(=O)N2CCC[C@H]2C(=O)N[C@@H](Cc2c[nH]cn2)C(=O)N[C@@H](CCC(=O)O)C(=O)N[C@@H](CCCCN(CC(=O)O)CC(=O)O)C(=O)N[C@@H](CCCCNC(=O)COCCOCCNC(=O)CCCCCCCCCCCCCCCC(=O)O)C(N)=O)NC(=O)[C@H](Cc2c[nH]c3ccccc23)NC(=O)[C@H](CCCNC(=N)N)NC(=O)[C@@H](Cc2ccccc2)NC(=O)[C@H](Cc2c[nH]cn2)NC1=O
B4: Ac-c[Glu-His-D-Phe-Arg-Trp-Lys]-Pro-Pro-Arg-Asp-Lys(biscarboxymethyl)-Lys[(2-{2-[16-(tetrazol-5-yl)hexadecanoylamino]ethoxy}ethoxy)acetyl]-NH2 (peptide)
peptide: Ac-EH[dF]RWKPPRD[Lys(CH2CO2H)2]K([AEEA-Palmitoyl(16-(5-tetrazolyl))])-NH2
modifications: lactam 1-6
SMILES: CC(=O)N[C@H]1CCC(=O)NCCCC[C@@H](C(=O)N2CCC[C@H]2C(=O)N2CCC[C@H]2C(=O)N[C@@H](CCCNC(=N)N)C(=O)N[C@@H](CC(=O)O)C(=O)N[C@@H](CCCCN(CC(=O)O)CC(=O)O)C(=O)N[C@@H](CCCCNC(=O)COCCOCCNC(=O)CCCCCCCCCCCCCCCc2nnn[nH]2)C(N)=O)NC(=O)[C@H](Cc2c[nH]c3ccccc23)NC(=O)[C@H](CCCNC(=N)N)NC(=O)[C@@H](Cc2ccccc2)NC(=O)[C@H](Cc2c[nH]cn2)NC1=O
B5: Ac-c[Orn-Glu-His-D-Phe-Arg-Trp-Gly-Asp]-Pro-Ser-Lys-Glu-Glu-Ser-Ser-Lys({2-[2-(16-carboxyhexadecanoylamino)ethoxy]ethoxy}acetyl)-NH2 (peptide)
peptide: Ac-[Orn]EH[dF]RWGDPSKEESSK(X4)-NH2
modifications: lactam 1-8
SMILES: CC(=O)N[C@H]1CCCNC(=O)C[C@@H](C(=O)N2CCC[C@H]2C(=O)N[C@@H](CO)C(=O)N[C@@H](CCCCN)C(=O)N[C@@H](CCC(=O)O)C(=O)N[C@@H](CCC(=O)O)C(=O)N[C@@H](CO)C(=O)N[C@@H](CO)C(=O)N[C@@H](CCCCNC(=O)COCCOCCNC(=O)CCCCCCCCCCCCCCCC(=O)O)C(N)=O)NC(=O)CNC(=O)[C@H](Cc2c[nH]c3ccccc23)NC(=O)[C@H](CCCNC(=N)N)NC(=O)[C@@H](Cc2ccccc2)NC(=O)[C@H](Cc2c[nH]cn2)NC(=O)[C@H](CCC(=O)O)NC1=O
B6: Ac-c[homoCys-His-D-Phe-Arg-Trp-Cys]-Pro-Pro-Lys-Asp-Dap(BCMA)-Lys[(2-{2-[16-(tetrazol-5-yl)hexadecanoylamino]ethoxy}ethoxy)acetyl]-OH (peptide)
peptide: Ac-[hCys]H[dF]RWCPPKD[Dap](NTA)K([AEEA-Palmitoyl(16-(5-tetrazolyl))])-OH
modifications: disulfide 1-6
SMILES: CC(=O)N[C@H]1CCSSC[C@@H](C(=O)N2CCC[C@H]2C(=O)N2CCC[C@H]2C(=O)N[C@@H](CCCCN)C(=O)N[C@@H](CC(=O)O)C(=O)N[C@@H](CNC(=O)CN(CC(=O)O)CC(=O)O)C(=O)N[C@@H](CCCCNC(=O)COCCOCCNC(=O)CCCCCCCCCCCCCCCc2nnn[nH]2)C(=O)O)NC(=O)[C@H](Cc2c[nH]c3ccccc23)NC(=O)[C@H](CCCNC(=N)N)NC(=O)[C@@H](Cc2ccccc2)NC(=O)[C@H](Cc2c[nH]cn2)NC1=O

The test deals with T1, human MC4 receptor (human, UniProt P32245 1-332).
T1 construct: whole, on cells; Assayed as membranes of BHK cells stably expressing the receptor; also called melanocortin receptor subtype 4; melanocortin receptor 4
T1 sequence (P32245 whole entry): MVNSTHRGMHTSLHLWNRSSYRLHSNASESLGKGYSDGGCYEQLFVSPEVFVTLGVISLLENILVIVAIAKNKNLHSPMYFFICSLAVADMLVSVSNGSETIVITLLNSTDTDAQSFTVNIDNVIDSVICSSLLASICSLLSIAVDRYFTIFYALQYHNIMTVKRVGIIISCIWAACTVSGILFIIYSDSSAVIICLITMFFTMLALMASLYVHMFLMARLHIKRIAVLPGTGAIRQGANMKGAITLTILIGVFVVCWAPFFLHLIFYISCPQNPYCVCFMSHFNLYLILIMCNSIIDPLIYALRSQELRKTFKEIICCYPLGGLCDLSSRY
The test is described as follows: 125I-NDP-α-MSH displacement, BHK-human MC4 membranes (Assay V).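 Note: Filter-retained radioactivity read by gamma counting, with affinity obtained through non-linear regression fitting of the binding curves.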
Description: The membranes were prepared from frozen or fresh cells that were homogenized in 20 mM HEPES pH 7.1, 5 mM MgCl₂ and 1 mg/ml bacitracin and centrifuged at 15000 rpm at 4° C., 10 min in a Sorvall RC 5B plus, SS-34 rotor. The supernatant was discarded, and the pellets were re-suspended in buffer, homogenized and centrifuged two more times. The final pellets were resuspended in the buffer mentioned above, and the protein concentration was measured and adjusted with buffer to 14 to 17 mg/ml and the membrane preparation were kept at −80° C. until assay. The assay was run directly on a dilution of this cell membrane suspension, without any further preparation. The BHK cell membranes are kept at −80° C. until assay, and the assay is run directly on a dilution of this cell membrane suspension, without further preparation. The suspension is diluted to give maximally 10% specific binding, i.e. to approx. 50-100 fold dilution. […] Test compounds were dissolved in DMSO and diluted in binding buffer. Radiolabelled ligand and membranes were diluted in binding buffer. The incubation was stopped by dilution with 2×100 μl ice-cold 0.9% NaCl. The radioactivity retained on the filters was counted using a Cobra II auto gamma counter.
The data were analysed by non-linear regression analysis of binding curves, using the Windows™ program GraphPad™ Prism (GraphPad Software, USA).
In the case of Ac-EH[dF]RW[Dap]PPRDK(biscarboxymethyl(3))K([AEEA-Palmitoyl(16-(5-tetrazolyl))])-NH2 (lactam 1-6), the affinity corresponds to a Ki of 13 nM.
Molecule Ac-DH[dF]RW[Dap]PPRDK(biscarboxymethyl(3))K([AEEA-Palmitoyl(16-(5-tetrazolyl))])-NH2 (lactam 1-6) registered a Ki of 71.5 nM.
The molecule Ac-[Dab]H[dF]RWDPPREK(biscarboxymethyl(3))SS-X5 (lactam 1-6) displayed a Ki of 12.5 nM.
For B1 the value was 17 nM.
In the case of B2, the Ki came to 25 nM.
The molecule B3 had a Ki of 348 nM.
For B4 the value was 24 nM; for Ac-EH[dF]RW[Dab][Hyp][Hyp]RDK(biscarboxymethyl(3))K([AEEA-Palmitoyl(16-(5-tetrazolyl))])-NH2 (lactam 1-6), 105 nM; for B5, 125 nM.
Under B6 stands 6.4 nM.
